Data published in patent publication US20040132157A1.

T1: MOCAc-Arg-Pro-Lys-Pro-Tyr-Ala-Nva-Trp-Met-Lys(DNP)-NH2
T1 chain: RPKPYAXWMK

T2: Nma-Pro-Lys-Pro-Leu-Ala-Nva-Trp-Lys(DNP)-NH2
T2 chain: PKPLAXWK


Key:
[1] = target: recombinant human ADAM protein (metalloprotease region and disintegrin region expressed in Escherichia coli from plasmid pMDH) (human) (UniProt Q9UKQ2); test: cell-based or functional assay
[2] = target: T1, MOCAc-Arg-Pro-Lys-Pro-Tyr-Ala-Nva-Trp-Me …
[3] = target: T2, Nma-Pro-Lys-Pro-Leu-Ala-Nva-Trp-Lys(DNP) …

| IC50 value (concentration of a test compound which 50% inhibits the protease activity) [1] | Molecule | fluorescent intensity (excitation 328 nm, 393 nm) after 22 hours at 37 C [2] | fluorescent intensity (excitation 340 nm, measuring 450 nm) after 2 hours at 37 C [3] |
| --- | --- | --- | --- |
| 100 µM | N-CBZ-Pro-Leu-Gly-hydroxamate (Sigma C8537) (peptide) |  |  |
|  | recombinant human ADAM protein (metalloprotease region and disintegrin region expressed in Escherichia coli from plasmid pMDH) (protein) VQEHEKYIEYYLVLDNGEFKRYNENQDEIRKRVFEMANYVNMLYKKLNTHVALVGMEIWTDKDKIKITPNASFTLENFSKWRGSVLSRRKRHDIAQLITATELAGTTVGLAFMSTMCSPYSVGVVQDHSDNLLRVAGTMAHEMGHNFGMFHDDYSCKCPSTICVMDKALSFYIPTDFSSCSRLSYDKFFEDKLSNCLFNAPLPTDIISTPICGNQLVEMGEDCDCGTSEECTNICCDAKTCKIKATFQCALGECCEKCQFKKAGMVCRPAKDECDLPEMCNGKSGNCPDDRFQVNGF | the fluorescent intensity of 70 was shown when the protein was added | the fluorescent intensity in the case of addition of the enzyme solution was 180 |
